Laboratory results taken from a protein production outcome set (Wang et al. 2014).

Assay: label from the status in PepcDB records

| Sequence | protein production |
| --- | --- |
| MSKVRIAIIGNGMVGHRFIEELLDKAPAGQFDITVFCEEPRIAYDRVHLSSYFSHHTAEELSLVREGFYEKHGVKVLVGERAITINRQEKVIHSSAGRTVFYDKLIMATGSYPWIPPIKGAETQDCFVYRTIEDLNAIESCARRSKRGAVVGGGLLGLEAAGALKNLGVETHVIEFAPMLMAEQLDQMGGEQLRRKIESMGVKVHTSKNTKEIVQQGTEARKTMHFADGSELQVDFIVFSTGIRPRDKLATQCGLAVAQRGGIMVNDSCQTSDPDIYAIGECASWNNRVYGLVAPGYKMAQVAVDHLLGSENSFTGADLSAKLKLLGVDVGGIGDAHGRTPGARSYVYLDESKEVYKRLIVSADNKTLLGAVLVGDTSDYGNLLQLVLNAIELPENPDSLILPAHAGSGKPSIGVDKLPDSAQICSCFDVSKGDLIAAINKGCHTVAALKAETKAGTGCGGCIPLVTQVLNAELAKQGIEVNNNLCEHFAYSRQELFHLIRVEGIKTFDELLEKHGQGYGCEVCKPTVGSLLASCWNEYILKPQHTPLQDSNDNFLANIQKDGTYSVIPRSAGGEITPEGLVAVGRIAREFNLYTKITGSQRIGLFGAQKDDLPEIWRQLIEAGFETGHAYAKALRMAKTCVGSTWCRYGVGDSVGFGVELENRYKGIRTPHKMKFGVSGCTRECAEAQGKDVGIIATEKGWNLYVCGNGGMKPRHADLLAADLDRETLIKYLDRFMMFYIRTADKLTRTAPWLDNMEGGIDYLRSVIIDDKLGLNDHLEEELARLRAAFACEWTETVNNPAAQTRFKHFINSDQRDPNVQVVPERDQHRPATPYERIPVTLVEEKA | not failed |
| MGVALAAMCLMSAQAQRRNEIQVPNLNGYTTLKCDFHMHSVFSDGLVWPTVRVDEAYREGLDAISLTEHIEYRPHKKDIIADHNRSYELSQKQAKKLGILLIRGSEITRSMPPGHFNAIFLNDSNPLEQKAYKDAFNEAKKQGAFIFWNHPGWARQQPDSTLWWPEHTQLYNDGCMHGIEVANGGLFMPEAIQWCLDKNLTMIGTSDIHQPIQTDYDFSKGEHRTMTFVFAKERSPEGIREALDNRRTAVYYRELVIGREEILRPFFEKCVDIKEVKRTEKEVTFSVMNATDLVLKLKKTAHDPSLVYFREMTLKPHTQHTISVKFDNGIKGGDCNFEVTNFIVAPDKGLDYTIKL | not failed |
| QSAKEAIEAANADFVKAYNSKDAAGVASKYMDDAAAFPPDMARVDGRQNIQKLWQGAMDMGISELKLTTLDVQESGDFAFESGSFSLKAPGKDSKLVDAAGKYVVVWRKGQDGGWKLYRDIWNSDPAK | not failed |
| MENKEISYEIIDFSGETNVQFRTSVDPGSYIPTHWHRAIEIIYMQEGSLDVIVESESFTIYKGDCILVNGNVLHSTKCTAPNTAILLQIPLNFMEKYIPNLGQLIFLWDYRTEDPVKKTKLMMLKTTLEQLQVINDIQPDGYLLRFNSLIFELMFQLYHNFSVQVFPQDINHKKKEMDRLDP | not failed |
| MSLTLYQKKSKMIGIIIPDLNNRFYAQIIDGIQEVIQKEGYTALISFSTNSDVKKYQNAIINFENNNVDGIITSAFTIPPNFHLNTPLVMYDSANINDDIVRIVSNNTKGGKESIKLLSKKIEKVLIQHWPLSLPTIRERIEAMTAEASKLKIDYLLEETPENNPYISAQSALNKSNQFDAIITVNDLYAAEIIKEAKRRNLKIPDDFQLVGYDNNILCGYTSPTISTIDQNPKLIGQTAAHRLLDLMSGNNSTRNSIIDVLPIKRDSTEGHHHHHH | not failed |
| MRRLFPEESEALLFKTLNYIPIPILLSEALAVEGRRPSTHRIHRFMNHAFVEQLGYNLSEIPNIAAWFDTVYPDPIIREQAMLEWDSVVYESEQQGLSTAGFKTFIRCGTGQFRWFLINAQLTTENQSNLNIVTMRDVHQLQLLLEENERQSKTDLLTGLANRRQIEDVLAAAMAKSDRTQSSLCVVMCDIDFFKNINDNFGHLCGDDVLKIVASQLQHSAQAATCIARWGGEEFLIVLEHVVPESAGVLCEQLRGLIAATDYQSYGQHMQLTMSFGCVQYQANESLQSLLCRVDKALYQAKNGGRNQVVMD | failed |
| GMKTSGKQDEAWIMSRLIKQLTDMGFPREPAEEALKSNNMNLDQAMSALLEKKVDVDKRGLGVTDHNGMAAK | not failed |
| MLRIYAPASSANISVGFDTLGAAISPIDGSLLGDVVQIESISTGFELESAGYFVRKLPKEPQKNIVYQAYVLFSEQLKLRGANVKPLRLTLEKNMPIGSGLGSSACSIVAALVALNQFHNEPFSKMELLEMMGELEGRISGSIHYDNVAPCYLGGVQFMVQS | failed |
| MNILTLMETFSAVVEAGSFTGAAEKLGLSKSFVSKQVSTLEVELGCRLLYRTTRTLSLSDEGSQFYNHCKIIMAEAENARAEVMDRQGAPRGKIRMTIPQSLIISGFGQLLIDFQLQYPEIKLEVIASGRIEDLVKEGIDIALRVGQLEDSSLISRRLMDCTFQVVASSDYIKKWGEPFQPADLMQHNCLIYGDSKINKGWPFRSPSGESITVKAKGNFISNDGGLVVEGMLNGLGIGFGPSFLFNEHVEKGRLKLLLSDYYQPPTAISALYPLNRNLSRRIRLLIDYLSERLSV | not failed |
| MQDVLVIFAFFIILLSIVIALIKDLSSWVYITILLAIASWLLLFPQILSPYVVGIDAHFEHIIAEETLRTGHWDPDLSGNIVNAALSITILTPFISIVSGIPLDWVLKIILTIYPLISIPIIWKSNIHILSFSNRESFLSLLLLIGTSSFMLISVYGRQEVGLFSGLVLLYFLHFKKSSVQLSIVLIFLVIGLIFSHYSTAIILIITYAISSLFLYLFQRDKCSMRLVLFSIVFMVFWLILIVYASMASISHSFNFIYLSILDWATENSSIVVEQQLNPTFYNIFQSLNYVINIFIIIFLVIGTSYLVYSRVVKSKLESEENKKYFIFAFLSSIYILLSVLPGFSSVYNAERIYLTTLYLFSGFSLIGFKRVFVYIVTFFTKFSPIYLKKSNKYIFVVFSFFVLVHFVLQVGILPMLYYGDTNSKYFGDISEDRHYTLEEEVYAVNWLQGINNNNRIYTDFYGRGRLPLRSYGNIPTSQIVDLKEIGPTTLNLRNIIFYQQKKELNDEVSSKNFEQIEEINNFLQKYGSTLYNSGMTEVKVINLNS | failed |
| SIAILVIMHGESTASSMVNVANTLLDCNHAVAINMGLEDRVQDILVQAVEIANKIDKGKGILILTDMGSILTFAKVIRDATGKEVKAIDMVSTPIVIEATRKALTPEMTLEKLYFNIIESIKKHYGDMEVTYAEK | failed |
| IRSIWENNGFGLMSSKTMTDFDYWISDFEKIGASQKEAEQLIVKAIEIAIDANARNYNYINAILKDWEQRGFKSVEEREAARKQKKTTKKQKSNTGHSDYDDLGF | not failed |
| MNFISDQVKKLSSSTPEEPDHNKPVEGTETATRPATNAELMASAKVVAEAAQAAARNESDKLDKGKVAGASADILDAAEKYGKFDEKSSTGQYLDKAEKYLNDYESSHSTGAGGPPPPTSQAEPASQPEPAAKKDDEESGGGLGGYAKMAQGFLK | failed |
| MKRFPFRPRLLVTVSLVALLLPGCASKPNNLKPSMPEPRLGVASENPGKPKKGKQASSGSQYDTLWERMFSLYALPQVEHRSVEREVSWFINHPDYLKRAQKRAEPFLYTIVRQLEKQKMPGELALLPIVESAFQPHAVSPARAAGIWQFIPETGRRYGLKRSRSYDGRRDVYASTRAAIKYLKKLHNDFNGDWLLAIAAYNCGEGAVAKAIQRNEARNLPTDFWSLDLPDETKAYVPRLLAVSKVFANADKYAIDLHYIPNEAIFKPVKVSSQLDLALAADAADMSLERMLELNPGFKHPHADIEGSYRLFVPADKSRKFKKELARLAMSGQFDSHPPADEGDGSTGFGHRGSLETATEDDAAPGRERSVRKPVVSGYGAEYAVPSRSAERGGPAKDSSRSERWQSVETPSRGGSAVVAHLRDGSRLRDVWGREHGQEDKPLKGNRRPDERLGLSSKANPNRKEGGRKVAGGSALSREEALREERGDRGKEKHAISIPFDERHGGGIKASQSIRHTVKPGETLFAISQRFGVSVADLRKWNGVKENKLEAGRNIRVSAGKD | failed |
| MTTTIHMLTIIILCGIVTWLTRIIPFVMISKVHLSERVVKWLSFIPITLFTALIIDGVLVQQEGVMGYTINMPFLITMIPTIVVAIVSRSLTITILSGIIIMALLRWVF | failed |
| MTSGVAPLPGIVSTLSAAAEAVSEALIALDADGGILVVNGAAERVFDRRRDDLIGRSLDVVFGGDFAEAMASNLSAKVDALPPAPGGGRLLRRPGLPPLALHAGFSVTGDHGRPLATIVIRDLSPRADSWLETEERLGGFAASMPGIIFQRVAHRDGSLSYPFLSSGVHAVLGYHPAEMSVALDGCLNAIHWADRESYLRRLRQSAQTLAICSEEFRAITREGAVKWLSGASQPRAMANGDILWDGVLVDVTERKRAELWLEMIMDRAADGIVTINEQGVIESANAAVGTFFGYADRGELIGRRVEILMAEADRRQHTRHMLRYRETGDGALIGAGPRELTGRRRDGTTFALELALSEVRTEGRRIFIAVIRDITQRKETEGALAATRARLQTIADNVPGLVFQRELTAEGVLRFLFVSNGVHEVLGITPEALLADGELFLGAMDPDVRAAFRETLRQSASRLEPMEEDIKLRGRDGEERWLRGWSRPSRREDGSVVWDGVTLDVTDRKRAEDKLTFLAYYDPLTGLGNRSLFIDRFDRARRFAESIQAWVAVLSIGLDRFGMVNATIGHTMGDKVLIAVTRRLQQSLEAGSIVCRAGGDRFLVLLTGLTDRADLREVVATIQDAFVPPIEVEGQQFDIGLTIGGALHPEDGREAETLIMHADAALHRAKGGGGAFQMFTPEMGARAAHLLTIQHKLRRGLERHEFVAYFQPQVDLRSGLITGCEALARWNSPEDGLVPPGKFIGVAEEYGLIDAICGQVLDDSCRWLSTWRARGLPQVPVAVNISGRQFQNARQLVAMVDQALRQSGVDPRLLELELTESSAMSDPENAIAVVNLLRERGVSCAIDDFGTGYSSLSVLKRFPIGKLKIDRSFVMDVTTDPNDAAIVQAIIAMAHALNLRVVAEGVETLDHLAFLREVHCDAVQGFLFARPLPGEDMALMLAGGPPQPNPR | failed |
| MTTALRQPTLSSQCLAEFLGTALLIFFGTGCVAALKVAGASFGLWEISIIWGVGVSMAIYLTAGISGAHLNPAVSIALTLFAGFDKRKLPFYMLAQVCGAFCGAALVYTLYSNLFFDFEQAHAMLRGSEGSLELASVFSTYPHPSLSTSQAFLVEVVITAILMAVIMALTDDNNGLPRGAMAPLLIGLLIAVIGSAMGPLTGFAMNPARDFGPKLMTFLAGWGEIAFTGGRDIPYFLVPVFAPILGACLGAASYRGLIARNLPMAPAATPETNDIRQGDTQAN | failed |
| MHEYSVVSSLIALCEEHAKKNQAHKIERVVVGIGERSAMDKSLFVSAFETFREESLVCKDAILDIVDEKVELECKDCSHVFKPNALDYGVCEKCHSKNVIITQGNEMRLLSLEMLAE | failed |
| MYNPTAIAATNYQILPRRGKHKIFIGMAPGVGKTYRMLEEGHALKQDGVDVAIGLLEAHGREETTLKAEGLELIPRKQVYCRNVLLQEMDTEEILRRSPQLVLIDELAHTNIPGSKQEKRYQDVEKILNAGIDVYSTVNIQHLESLNDLVYRISGVVVRERIPDRIIDDADEIVVVDVTPETLQERLQEGKIYAPEKIDQALQNFFRRSNLIALRELALREIADNIEEESISETKNLHYNIRERVLVCISTYPNSIQLLRRGARIANHMNGQLFVLFVAPAGKFLSKSEALHIETCKRLCQEFTGEFLRIESPNIVTTIVKIATQERITQIVLGETRRSRFQLLFKGSIVQQLMRALPQVDIHIIANN | failed |
| MSLCRLARKNIRTFATKRMKQFMWIAMSIMILFFMISLQFNEGAILKVGDAFVFQMYFYTLFIVLIFICIFTTYKMMYSLLLVRREEFTSYVAENIKRKEVLCLLCQEQLFIYGAAFVFGLVNGMLFLKLFTIIFIRIAGIQGINSAPITIYAIVVVSIIMIVILLLSMVQCFRFVQSLQDKNSLHFKKKA | failed |
